In ChEMBL document CHEMBL2073939, “Export pumps for anionic conjugates encoded by MRP genes” (Adv Enzyme Regul, 1999):

B1: Multidrug resistance-associated protein 1 (Homo sapiens) (protein)
chain: MALRGFCSADGSDPLWDWNVTWNTSNPDFTKCFQNTVLVWVPCFYLWACFPFYFLYLSRHDRGYIQMTPLNKTKTALGFLLWIVCWADLFYSFWERSRGIFLAPVFLVSPTLLGITMLLATFLIQLERRKGVQSSGIMLTFWLVALVCALAILRSKIMTALKEDAQVDLFRDITFYVYFSLLLIQLVLSCFSDRSPLFSETIHDPNPCPESSASFLSRITFWWITGLIVRGYRQPLEGSDLWSLNKEDTSEQVVPVLVKNWKKECAKTRKQPVKVVYSSKDPAQPKESSKVDANEEVEALIVKSPQKEWNPSLFKVLYKTFGPYFLMSFFFKAIHDLMMFSGPQILKLLIKFVNDTKAPDWQGYFYTVLLFVTACLQTLVLHQYFHICFVSGMRIKTAVIGAVYRKALVITNSARKSSTVGEIVNLMSVDAQRFMDLATYINMIWSAPLQVILALYLLWLNLGPSVLAGVAVMVLMVPVNAVMAMKTKTYQVAHMKSKDNRIKLMNEILNGIKVLKLYAWELAFKDKVLAIRQEELKVLKKSAYLSAVGTFTWVCTPFLVALCTFAVYVTIDENNILDAQTAFVSLALFNILRFPLNILPMVISSIVQASVSLKRLRIFLSHEELEPDSIERRPVKDGGGTNSITVRNATFTWARSDPPTLNGITFSIPEGALVAVVGQVGCGKSSLLSALLAEMDKVEGHVAIKGSVAYVPQQAWIQNDSLRENILFGCQLEEPYYRSVIQACALLPDLEILPSGDRTEIGEKGVNLSGGQKQRVSLARAVYSNADIYLFDDPLSAVDAHVGKHIFENVIGPKGMLKNKTRILVTHSMSYLPQVDVIIVMSGGKISEMGSYQELLARDGAFAEFLRTYASTEQEQDAEENGVTGVSGPGKEAKQMENGMLVTDSAGKQLQRQLSSSSSYSGDISRHHNSTAELQKAEAKKEETWKLMEADKAQTGQVKLSVYWDYMKAIGLFISFLSIFLFMCNHVSALASNYWLSLWTDDPIVNGTQEHTKVRLSVYGALGISQGIAVFGYSMAVSIGGILASRCLHVDLLHSILRSPMSFFERTPSGNLVNRFSKELDTVDSMIPEVIKMFMGSLFNVIGACIVILLATPIAAIIIPPLGLIYFFVQRFYVASSRQLKRLESVSRSPVYSHFNETLLGVSVIRAFEEQERFIHQSDLKVDENQKAYYPSIVANRWLAVRLECVGNCIVLFAALFAVISRHSLSAGLVGLSVSYSLQVTTYLNWLVRMSSEMETNIVAVERLKEYSETEKEAPWQIQETAPPSSWPQVGRVEFRNYCLRYREDLDFVLRHINVTINGGEKVGIVGRTGAGKSSLTLGLFRINESAEGEIIIDGINIAKIGLHDLRFKITIIPQDPVLFSGSLRMNLDPFSQYSDEEVWTSLELAHLKDFVSALPDKLDHECAEGGENLSVGQRQLVCLARALLRKTKILVLDEATAAVDLETDDLIQSTIRTQFEDCTVLTIAHRLNTIMDYTRVIVLDKGEIQEYGAPSDLLQQRGLFYSMAKDAGLV
B2: Multidrug resistance-associated protein 1 (Mus musculus) (protein)
chain: MALRSFCSADGSDPLWDWNVTWHTSNPDFTKCFQNTVLTWVPCFYLWSCFPLYFFYLSRHDRGYIQMTHLNKTKTALGFFLWIICWADLFYSFWERSQGVLRAPVLLVSPTLLGITMLLATFLIQLERRKGVQSSGIMLTFWLVALLCALAILRSKIISALKKDAHVDVFRDSTFYLYFTLVLVQLVLSCFSDCSPLFSETVHDRNPCPESSASFLSRITFWWITGMMVHGYRQPLESSDLWSLNKEDTSEEVVPVLVNNWKKECDKSRKQPVRIVYAPPKDPSKPKGSSQLDVNEEVEALIVKSPHKDREPSLFKVLYKTFGPYFLMSFLYKALHDLMMFAGPKILELIINFVNDREAPDWQGYFYTALLFVSACLQTLALHQYFHICFVSGMRIKTAVVGAVYRKALLITNAARKSSTVGEIVNLMSVDAQRFMDLATYINMIWSAPLQVILALYFLWLSLGPSVLAGVAVMILMVPLNAVMAMKTKTYQVAHMKSKDNRIKLMNEILNGIKVLKLYAWELAFQDKVMSIRQEELKVLKKSAYLAAVGTFTWVCTPFLVALSTFAVFVTVDERNILDAKKAFVSLALFNILRFPLNILPMVISSIVQASVSLKRLRIFLSHEELEPDSIERRSIKSGEGNSITVKNATFTWARGEPPTLNGITFSIPEGALVAVVGQVGCGKSSLLSALLAEMDKVEGHVTLKGSVAYVPQQAWIQNDSLRENILFGHPLQENYYKAVMEACALLPDLEILPSGDRTEIGEKGVNLSGGQKQRVSLARAVYSNSDIYLFDDPLSAVDAHVGKHIFEKVVGPMGLLKNKTRILVTHGISYLPQVDVIIVMSGGKISEMGSYQELLDRDGAFAEFLRTYANAEQDLASEDDSVSGSGKESKPVENGMLVTDTVGKHLQRHLSNSSSHSGDTSQQHSSIAELQKAGAKEETWKLMEADKAQTGQVQLSVYWNYMKAIGLFITFLSIFLFLCNHVSALASNYWLSLWTDDPPVVNGTQANRNFRLSVYGALGILQGAAIFGYSMAVSIGGIFASRRLHLDLLYNVLRSPMSFFERTPSGNLVNRFSKELDTVDSMIPQVIKMFMGSLFSVIGAVIIILLATPIAAVIIPPLGLVYFFVQRFYVASSRQLKRLESVSRSPVYSHFNETLLGVSVIRAFEEQERFIHQSDLKVDENQKAYYPSIVANRWLAVRLECVGNCIVLFAALFAVISRHSLSAGLVGLSVSYSLQITAYLNWLVRMSSEMETNIVAVERLKEYSETEKEAPWQIQETAPPSTWPHSGRVEFRDYCLRYREDLDLVLKHINVTIEGGEKVGIVGRTGAGKSSLTLGLFRINESAEGEIIIDGVNIAKIGLHNLRFKITIIPQDPVLFSGSLRMNLDPFSQYSDEEVWMALELAHLKGFVSALPDKLNHECAEGGENLSVGQRQLVCLARALLRKTKILVLDEATAAVDLETDNLIQSTIRTQFEDCTVLTIAHRLNTIMDYTRVIVLDKGEVRECGAPSELLQQRGIFYSMAKDAGLV

Key:
[1] = substrate: Cc1ccc(N(CC(=O)O)CC(=O)O)c(OCCOc2cc(-c3c4cc(Cl)c(=O)cc-4oc4cc(O)c(Cl)cc34)ccc2N(CC(=O)O)CC(=O)O)c1; test: TP_TRANSPORTER: uptake in membrane vesicle from MRP1-expressing HeLa cells; assay type: functional, cell membranes
[2] = substrate: CCCCC/C=C\C\C=C/C=C/C=C/[C@@H](SC[C@@H](NC(=O)CC[C@H](N)C(=O)O)C(=O)NCC(=O)O)[C@@H](O)CCCC(=O)O; test: cells, lysate or membranes named

| Protein | Km [1] [µM] | Km [2] [µM] |
| --- | --- | --- |
| B1 | 12 | – |
| B2 | – | 0.1 |
